This series has as its target EcoSSB-Q152del (C-terminal truncated SSB) (Escherichia coli, UniProt P0AGE0 SEQ:1-152). As to the kind of experiment: EMSA; complex formation not impaired vs WT; 5% TBE gel. To be noted: tags: N-terminal His6-TEV site removed; chain copies: 4 inferred. For orientation: Mobility shift assays separate free from complexed probe on a gel.

B1: 70mer polyT (ssDNA)
DNA: TTTTTTTTTTTTTTTTTTTTTTTTTTTTTTTTTTTTTTTTTTTTTTTTTTTTTTTTTTTTTTTTTTTTTT
On to B1, for which the binding result is on record as “binds”.

Values taken from patent US20150197796, “SSB METHOD” (OXFORD NANOPORE TECHNOLOGIES LIMITED, published 2015).
